The results in this text go back to paper PMC11928938.

Assay in all cases: SEC; size-exclusion chromatography on Superdex 200 of purified recombinant hGlyRS; dimer and monomer forms fractionated; dimer to monomers
For orientation: SEC sorts molecules by how far they enter the pores of the column.

For assay [1], the target named is human glycyl-tRNA synthetase H418R variant (hGlyRS-H418R), recombinant (human).
In assay [2] the target is human glycyl-tRNA synthetase S211F variant (hGlyRS-S211F), recombinant (human).
In assay [3] the target is human glycyl-tRNA synthetase, wild type (hGlyRS-WT), recombinant (human).

With “human glycyl-tRNA synthetase H418R variant (hGlyRS-H418R), recombinant (enzyme)”, in assay [1], the dimer:monomer (D:M) ratio, dimer part (dimer parts against 3.0 monomer parts) came out at 7 and the stoichiometry N (usually a count of units in the complex or per binding partner) came to 2.

For the substance “human glycyl-tRNA synthetase S211F variant (hGlyRS-S211F), recombinant (enzyme)”, in assay [2], the dimer:monomer (D:M) ratio, dimer part (dimer parts against 6.2 monomer parts) was 3.8.

For “human glycyl-tRNA synthetase, wild type (hGlyRS-WT), recombinant (enzyme)”, in assay [3], the dimer:monomer (D:M) ratio, dimer part (dimer parts against 0.9 monomer parts) amounted to 9.1 and the stoichiometry N turned out to be 2.
